Data as given in US20220119543A1 (INATHERYS, published 2022).

Key:
[1] = biological target: T1, Recombinant human TfR (R&D Systems, Catalog number 2474-TR) (human, UniProt P02786 89-760); assay: ELISA, recombinant human TfR coated on plate
T1 construct: Bought recombinant protein; also called Histidin-tagged human TfR; TfR-His; not shown: histidine tag
Procedure: For the determination of the specificity of the antibody an ELISA test may be applied using the following protocol. Recombinant human TfR (as obtained from R&D Systems, Catalog number 2474-TR) are directly coated on a 96 well plate overnight and washed twice before incubation with several dilutions (10) of the antibody (murine and humanized mAb) (dilution may start at the concentration of 50 μg/ml through 0,001 ug/ml) and incubate 1 hour at room temperature. After two washes a secondary antibody Goat-anti Human IgG is incubated Incubate 1 hour at room temperature in the dark, washed twice and incubated with the TMB solution for 10 minutes before reading the absorbance at 450 nm.

[2] = biological target: T1, Recombinant human TfR (R&D Systems, …); assay: SPR (Biacore), His-tagged human TfR captured on anti-Penta-His CM5 chip, antibody injected
Procedure: Histidin-tagged human TfR (as obtained from R&D Systems, Catalog number 2474-TR) was bound after passage on covalently immobilized Penta-His mAb CM5 sensor chip. Ten different concentrations of antibody (1 to 500 nM) were injected across the anti-His/TfR-His surface for 4 minutes and the dissociation complexes was followed for 5 minutes. Both association and dissociation profiles are analyzed with a nonlinear square algorithm implemented in the BIAevalution software using single-exponential functions of time.

T1 sequence (P02786 89-760 limits assumed): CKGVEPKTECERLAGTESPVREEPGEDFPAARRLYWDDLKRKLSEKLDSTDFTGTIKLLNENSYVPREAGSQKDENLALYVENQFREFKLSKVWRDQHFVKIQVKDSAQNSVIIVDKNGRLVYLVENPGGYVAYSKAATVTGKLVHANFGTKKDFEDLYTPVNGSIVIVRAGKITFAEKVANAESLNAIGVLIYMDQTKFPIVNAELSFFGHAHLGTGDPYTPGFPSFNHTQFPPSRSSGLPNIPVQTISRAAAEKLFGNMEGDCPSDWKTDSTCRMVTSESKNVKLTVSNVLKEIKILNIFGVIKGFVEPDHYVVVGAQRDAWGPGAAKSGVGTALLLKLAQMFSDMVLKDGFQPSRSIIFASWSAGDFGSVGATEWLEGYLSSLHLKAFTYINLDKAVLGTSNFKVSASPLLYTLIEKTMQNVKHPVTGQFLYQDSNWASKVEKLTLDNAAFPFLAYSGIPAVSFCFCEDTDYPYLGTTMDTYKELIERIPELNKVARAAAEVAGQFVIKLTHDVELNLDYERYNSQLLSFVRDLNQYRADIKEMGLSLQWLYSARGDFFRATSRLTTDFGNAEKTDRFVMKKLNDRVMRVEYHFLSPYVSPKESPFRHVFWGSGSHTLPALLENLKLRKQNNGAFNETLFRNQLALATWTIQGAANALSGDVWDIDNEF

EC50 [1]: 0.024 µg/mL
Kd [2]: 315 pM
B1: mAb1 (antibody, human IgG4 S228P, kappa, V domains shown)
VH: QVQLVQSGPELKKPGASVKVSCKASGYTFTNQGMNWVKQAPGKGLKWMGWINTYTGEPINADDFKGRFVISLDTSASTAYLQISSLKAEDTAVYFCVREGWDSMDYWGQGTSVTVSS
VL: QIVLTQSPATLSVSPGERATLSCSASSSVNYMHWFQQKPGQSPRLLIYSTSNRATGIPARFSGSGSGTSYTLTISSLEPEDFAVYYCQQRSSYPLTFGQGTKLEIKR
notes: Humanized A24, human IgG4 isotype; also called VH4/VL4 with IgG4 Fc region
